Experimental data as given in publication PMC7374751, “TIMP-3 facilitates binding of target metalloproteinases to the endocytic receptor LRP-1 and promotes scavenging of MMP-1” (Scientific Reports, 2020).

Legend:
Assay in all cases: enzyme activity of pre-formed complexes against synthetic substrates; 10 nM [35S]TIMP-3 incubated with an equimolar concentration of metalloproteinase for 1 h at 37 °C; complex formation and stability over 24 h checked by activity
Settings in all cases: both partners purified
[1] = target: T1, MMP-3 catalytic domain (MMP-3ΔC) (UniProt P08254 100-272)
T1 construct: catalytic domain of MMP-3; pro-domain removed with APMA
T1 sequence (P08254 100-272, stated change not applied): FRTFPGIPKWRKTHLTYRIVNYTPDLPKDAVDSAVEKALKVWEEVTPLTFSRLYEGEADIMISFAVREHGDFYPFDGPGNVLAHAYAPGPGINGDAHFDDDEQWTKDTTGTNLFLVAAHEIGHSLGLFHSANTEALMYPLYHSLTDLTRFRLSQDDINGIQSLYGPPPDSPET

ectodomain of MMP-14 = target: T2, ectodomain of MMP-14 (UniProt P50281 112-541)
T2 construct: also called MMP-14 ectodomain; MMP-14 catalytic domain

[2] = target: T3, FLAG-tagged ADAMTS-4 lacking the C-terminal spacer domain (ADAMTS4-2) (UniProt O75173 213-685)
T3 construct: ADAMTS-4 lacking the C-terminal spacer domain
T3 sequence (looked up): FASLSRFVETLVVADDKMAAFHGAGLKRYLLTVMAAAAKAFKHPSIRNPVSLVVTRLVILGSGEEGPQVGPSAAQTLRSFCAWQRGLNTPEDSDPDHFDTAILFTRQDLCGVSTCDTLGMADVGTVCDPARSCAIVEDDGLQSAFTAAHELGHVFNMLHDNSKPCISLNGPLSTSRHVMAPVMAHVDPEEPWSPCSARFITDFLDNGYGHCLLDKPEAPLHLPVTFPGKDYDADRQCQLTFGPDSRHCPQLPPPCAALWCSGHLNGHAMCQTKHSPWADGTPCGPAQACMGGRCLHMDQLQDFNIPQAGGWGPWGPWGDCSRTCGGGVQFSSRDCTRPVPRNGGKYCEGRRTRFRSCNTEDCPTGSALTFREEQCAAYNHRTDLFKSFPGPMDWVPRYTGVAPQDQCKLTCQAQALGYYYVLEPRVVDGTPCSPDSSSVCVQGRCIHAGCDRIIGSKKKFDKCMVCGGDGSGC

[3] = target: T4, FLAG-tagged ADAMTS-5 lacking the C-terminal thrombospondin domain (ADAMTS5-2) (UniProt Q9UNA0 262-874)
T4 construct: ADAMTS-5 lacking the C-terminal thrombospondin domain
T4 sequence (looked up): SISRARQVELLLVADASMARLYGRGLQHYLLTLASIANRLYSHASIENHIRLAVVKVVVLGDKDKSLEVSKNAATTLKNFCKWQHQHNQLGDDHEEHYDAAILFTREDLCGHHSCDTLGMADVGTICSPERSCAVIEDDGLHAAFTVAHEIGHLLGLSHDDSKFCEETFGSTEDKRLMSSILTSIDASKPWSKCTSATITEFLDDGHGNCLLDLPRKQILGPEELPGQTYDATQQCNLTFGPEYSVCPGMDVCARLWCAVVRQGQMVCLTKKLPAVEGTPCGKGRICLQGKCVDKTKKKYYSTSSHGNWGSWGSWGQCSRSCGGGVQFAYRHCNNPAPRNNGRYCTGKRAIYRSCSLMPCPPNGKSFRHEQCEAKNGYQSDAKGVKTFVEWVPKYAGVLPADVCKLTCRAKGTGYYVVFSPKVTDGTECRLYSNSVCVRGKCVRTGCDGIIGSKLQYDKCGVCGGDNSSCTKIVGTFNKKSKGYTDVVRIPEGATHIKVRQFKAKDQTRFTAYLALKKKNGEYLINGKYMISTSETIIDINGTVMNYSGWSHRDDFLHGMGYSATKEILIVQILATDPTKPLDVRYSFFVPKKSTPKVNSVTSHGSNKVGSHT

[4] = target: T5, catalytic domain of human MMP-1 (MMP-1ΔC) (human, UniProt P03956 100-269)
T5 construct: catalytic domain of human MMP-1 (lacks the hemopexin domain); pro-domain removed with APMA
T5 sequence (looked up): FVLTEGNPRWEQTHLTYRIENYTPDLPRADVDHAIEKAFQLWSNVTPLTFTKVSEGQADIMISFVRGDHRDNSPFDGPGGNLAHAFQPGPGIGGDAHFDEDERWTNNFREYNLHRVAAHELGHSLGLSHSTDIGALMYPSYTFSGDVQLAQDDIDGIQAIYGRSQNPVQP

Measured: stoichiometry N

B1: FLAG-tagged TIMP-3 (natural protein, UniProt P35625 24-211, looked up)
chain: CTCSPSHPQDAFCNSDIVIRAKVVGKKLVKEGPFGTLVYTIKQMKMYRGFTKMPHVQYIHTEASESLCGLKLEVNKYQYLLTGRVYDGKMYTGLCNFVERWDQLTLSQRKGLNYRYHLGCNCKIKSCYYLPCFVTSKNECLWTDMLSNFGYPGYQSKHYACIRQKGGYCSWYRGWAPPDKSIINATDP
notes: also called T3; [35S]TIMP-3
1: all assays above
